Earlier results in patent US9956303B2, “Anti-met therapy for previously diagnosed cancer patients” (GE HEALTHCARE LIMITED, priority 2011, dated 2018).

Tests used:
c-Met [1] = biological target: T1, c-Met (Homo sapiens, UniProt P08581); parameters: host or cells: NSCLC patients' tumours; conditions: for median overall-survival: analysed by retrospective IHC of archive biopsy samples, p=0.002
[2] = in vivo
c-Met [3] = biological target: T1, c-Met; conditions: mouse, in vivo
HGF = biological target: T2, HGF (Homo sapiens, UniProt P14210); conditions: combination with ECX
T2 construct: host or cells: patients
T2 sequence (P14210 32-728): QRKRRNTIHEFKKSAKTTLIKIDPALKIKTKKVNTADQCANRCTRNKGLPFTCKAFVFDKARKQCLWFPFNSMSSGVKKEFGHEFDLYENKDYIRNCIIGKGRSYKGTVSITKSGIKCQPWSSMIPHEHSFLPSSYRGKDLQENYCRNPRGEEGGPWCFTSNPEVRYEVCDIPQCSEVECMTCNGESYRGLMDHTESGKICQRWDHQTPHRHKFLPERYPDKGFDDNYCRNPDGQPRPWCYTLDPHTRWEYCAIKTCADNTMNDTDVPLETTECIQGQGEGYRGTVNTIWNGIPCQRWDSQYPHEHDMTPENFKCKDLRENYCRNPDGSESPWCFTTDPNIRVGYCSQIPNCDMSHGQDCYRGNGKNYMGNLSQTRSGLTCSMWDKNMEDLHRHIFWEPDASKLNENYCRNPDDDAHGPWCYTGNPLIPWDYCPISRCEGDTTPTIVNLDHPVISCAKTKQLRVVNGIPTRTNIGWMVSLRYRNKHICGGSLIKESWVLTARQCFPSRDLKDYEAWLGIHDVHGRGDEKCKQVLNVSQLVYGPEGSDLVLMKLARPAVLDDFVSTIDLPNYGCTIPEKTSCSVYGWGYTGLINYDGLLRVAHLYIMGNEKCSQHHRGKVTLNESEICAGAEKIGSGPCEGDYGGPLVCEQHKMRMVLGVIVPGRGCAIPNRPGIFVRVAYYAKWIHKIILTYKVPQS

T1 sequence (P08581 25-1390): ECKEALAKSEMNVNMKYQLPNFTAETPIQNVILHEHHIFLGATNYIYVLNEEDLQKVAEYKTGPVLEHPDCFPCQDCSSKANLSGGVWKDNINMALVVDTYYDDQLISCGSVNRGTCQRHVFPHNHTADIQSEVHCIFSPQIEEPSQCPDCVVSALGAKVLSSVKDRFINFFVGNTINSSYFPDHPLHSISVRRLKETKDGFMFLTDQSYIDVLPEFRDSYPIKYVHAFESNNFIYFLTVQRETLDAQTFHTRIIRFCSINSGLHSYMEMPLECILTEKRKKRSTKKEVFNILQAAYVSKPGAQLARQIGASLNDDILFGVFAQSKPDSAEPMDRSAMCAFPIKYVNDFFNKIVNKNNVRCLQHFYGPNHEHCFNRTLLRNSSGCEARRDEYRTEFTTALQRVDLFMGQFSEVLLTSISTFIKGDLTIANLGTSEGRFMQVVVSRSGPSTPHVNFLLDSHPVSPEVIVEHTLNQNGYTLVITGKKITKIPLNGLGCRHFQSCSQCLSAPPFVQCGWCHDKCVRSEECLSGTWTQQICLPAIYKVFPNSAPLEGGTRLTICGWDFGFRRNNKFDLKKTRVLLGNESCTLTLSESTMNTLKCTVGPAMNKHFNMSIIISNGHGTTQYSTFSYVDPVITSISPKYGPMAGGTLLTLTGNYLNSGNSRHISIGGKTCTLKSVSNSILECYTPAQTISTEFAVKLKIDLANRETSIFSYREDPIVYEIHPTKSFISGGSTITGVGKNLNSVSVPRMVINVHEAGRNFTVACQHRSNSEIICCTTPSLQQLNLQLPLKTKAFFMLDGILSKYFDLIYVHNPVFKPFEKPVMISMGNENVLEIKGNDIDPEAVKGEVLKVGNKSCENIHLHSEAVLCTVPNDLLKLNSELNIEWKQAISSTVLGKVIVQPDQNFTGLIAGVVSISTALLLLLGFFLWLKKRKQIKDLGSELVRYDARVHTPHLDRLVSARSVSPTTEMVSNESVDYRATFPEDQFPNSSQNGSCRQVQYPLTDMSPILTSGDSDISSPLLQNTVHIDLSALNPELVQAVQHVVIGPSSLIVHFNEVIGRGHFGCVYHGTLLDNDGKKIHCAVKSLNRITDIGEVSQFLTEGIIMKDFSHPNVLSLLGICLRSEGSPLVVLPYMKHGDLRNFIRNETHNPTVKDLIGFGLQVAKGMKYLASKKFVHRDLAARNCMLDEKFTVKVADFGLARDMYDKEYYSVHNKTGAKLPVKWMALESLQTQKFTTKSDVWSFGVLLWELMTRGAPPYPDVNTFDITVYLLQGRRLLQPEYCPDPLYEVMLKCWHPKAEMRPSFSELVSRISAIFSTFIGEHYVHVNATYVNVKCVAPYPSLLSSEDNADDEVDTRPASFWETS

Question: Which median overall-survival (c-Met [1]) does the source give for `C#Cc1cccc(Nc2ncnc3cc(OCCOC)c(OCCOC)cc23)c1` [Erlotinib, reference compound] here?
Answer: 3.8 months

Question: Which combined elimination half-life [2] does the source give for “MetMAb: a monoclonal antibody blocking c-Met (Roche)” here?
Answer: 190 to 288 h

Question: What about the “outcome, low c-Met expression” value (c-Met [1]; MetMAb in combination with Erlotinib compared to Erlotinib alone) of the same molecule?
Answer: worse outcome

Question: What about the median overall-survival (c-Met [1]) of the same molecule?
Answer: 12.6 months

Question: And the “outcome, patient group as a whole” value (c-Met [1]; patients with high and low c-Met expression, MetMAb+Erlotinib vs placebo+Erlotinib)?
Answer: no differences between the two treatments

Question: For “MetMab™ labelled with ^76Br or ^89Zr: anti-c-Met antibody (MetMab) labelled with 76Br or 89Zr for molecular imaging of c-Met”, which “tumour uptake and clearance” value (c-Met [3]) is on record?
Answer: rapid tumour uptake and slow clearance

Question: What does the source list for rilotumumab: HGF antibody (Amgen)?
Answer: median overall survival vs placebo and ECX (HGF; c-Met high tumours (>50% tumour cells positive)): improved median overall survival; overall survival vs placebo and ECX (HGF; c-Met low tumours (≤50% positive)): trend toward unfavourable overall survival
